The target of the assay is T1, Erythrina cristagalli lectin (Erythrina cristagalli, UniProt P83410 1-239).
T1 construct: also called ECL
T1 sequence (looked up): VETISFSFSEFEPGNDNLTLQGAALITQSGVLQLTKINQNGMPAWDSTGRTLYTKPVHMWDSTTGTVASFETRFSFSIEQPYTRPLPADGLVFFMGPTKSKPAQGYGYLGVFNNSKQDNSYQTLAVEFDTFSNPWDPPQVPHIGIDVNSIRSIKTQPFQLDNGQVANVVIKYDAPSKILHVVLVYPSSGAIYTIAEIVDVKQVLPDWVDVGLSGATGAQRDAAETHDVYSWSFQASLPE
Briefly: SPR; BiacoreX; biotinylated TTL sample on streptavidin chip loaded to one third; at least five ECL concentrations (Gal-0 once at 100 µM ECL); equilibrium binding, Langmuir isotherm fit; KDs determined twice. The conditions noted are these: both partners purified. On the technique in general: In SPR one partner is held on a chip, and binding of the other changes the refractive index at the surface.

These results are taken from paper PMC4464295, “Orthogonal dual-modification of proteins for the engineering of multivalent protein scaffolds” (Beilstein Journal of Organic Chemistry, 2015).

Usually Kd stands for the free concentration of one partner at which half of the binding sites on the other are occupied at equilibrium, for simple one-to-one binding. Lower therefore signals higher affinity.

B1: Biotinylated thermophilic lipase from Thermoanaerobacter thermohydrosulfuricus with azidohomoalanine, carrying 1-2 galactose units (Gal-1) (enzyme)
chain: SQKAVEITYNGKTLRGMMHLPDDVKGKVPMVIMFHGFTGNKVESHFIFVKMSRALEKVGIGSVRFDFYGSGESDGDFSEMTFSSELEDARQILKFVKEQPTTDPERIGLLGLSMGGAIAGIVAREYKDEIKALVLWAPAFNMPELIMHESVKQYGAIMEQLGFVDIGGHKLSKDFVEDISKLNIFELSKGYDKKVLIVHGTNDEAVEYKVSDRILKEVYGDNATRVTIENADHTFKSLEWEKKAIEESVEFFKKELLKG
modifications: all Met replaced by azidohomoalanine (Aha), nine Aha residues; N-terminal Met/Aha excised; N-terminal Ser (Ser2) oxidised with NaIO4 to the aldehyde and joined to biotin hydroxylamine 1 by oxime ligation; 1-2 Aha residues joined to butynyl galactose 2 by CuAAC (positions not given)
For B1, the equilibrium dissociation constant (Kd) came to 70 µM. This counts as double-digit micromolar.

B2: Biotinylated thermophilic lipase from Thermoanaerobacter thermohydrosulfuricus with azidohomoalanine, carrying 3-4 galactose units (Gal-3) (enzyme)
chain: SQKAVEITYNGKTLRGMMHLPDDVKGKVPMVIMFHGFTGNKVESHFIFVKMSRALEKVGIGSVRFDFYGSGESDGDFSEMTFSSELEDARQILKFVKEQPTTDPERIGLLGLSMGGAIAGIVAREYKDEIKALVLWAPAFNMPELIMHESVKQYGAIMEQLGFVDIGGHKLSKDFVEDISKLNIFELSKGYDKKVLIVHGTNDEAVEYKVSDRILKEVYGDNATRVTIENADHTFKSLEWEKKAIEESVEFFKKELLKG
modifications: all Met replaced by azidohomoalanine (Aha), nine Aha residues; N-terminal Met/Aha excised; N-terminal Ser (Ser2) oxidised with NaIO4 to the aldehyde and joined to biotin hydroxylamine 1 by oxime ligation; 3-4 Aha residues joined to butynyl galactose 2 by CuAAC (positions not given; two found by MS/MS, Table S5)
Molecule B2 returned a dissociation constant (Kd) of 60 µM.
